Measured values: the supplement of paper PMC9170038

Experiments:
MS2 coat protein [1] = assay: apparent KD of MS2 coat protein; higher = weaker reporter binding; settings: Eterna round: R101
Experimental: (§1)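 RNA-MaP: designed FMN/MS2 RNA switches (84 nt design region) are transcribed on-chip within common flanks and titrated with SNAP-549-labelled MS2 coat protein (about 1-3000 nM) in 100 mM Tris pH 7.5, 80 mM KCl, 4 mM MgCl2, without or with 200 uM FMN. Median apparent KD per design; activation ratio = KD,OFF / KD,ON.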

MS2 coat protein [2] = assay: apparent KD of MS2 coat protein; designed switch direction (-1 OFF switch, 1 ON switch): -1; higher = weaker reporter binding; settings: Eterna round: R98
Experimental: as §1

MS2 coat protein [3] = assay: apparent KD of MS2 coat protein; designed switch direction (-1 OFF switch, 1 ON switch): 1; higher = weaker reporter binding; settings: Eterna round: R98
Experimental: as §1

Sequence | apparent KD of MS2 coat protein (MS2 coat protein [1]; input ligand: FMN 200 uM) | apparent KD of MS2 coat protein (MS2 coat protein [1]; input ligand: none) | apparent KD of MS2 coat protein (MS2 coat protein [2]; input ligand: FMN 200 uM) | apparent KD of MS2 coat protein (MS2 coat protein [2]; input ligand: none) | further results
CGCUAUAACAUGAGGAUCACCCAUGUAUACAUGGAAUUGACGUAGGAUAUGCAGUUGAUUAUAGUGCAGAAGGACGGUAUAGCG [JR #DistanceFar #Hairpin #Noisy #NP SSNG3 Sub069] (puzzle (switch architecture): Same State NG 3) | 37.3 nM | 101 nM | – | – | –
UAUAUAUAGGCAGGAUAUACAUGAAUAUAUAAUAUAAUAUAUAAUAUAACAUGAGGAUCACCCAUGUAGAAGGGCCAUAAUAUA [LRO031_Exclusion NG 2] | – | – | 109 nM | 48.6 nM | –
AAUAAUUCUUAAGGAUAUGACUCCGAAACGGAGUCAGAAGGUGAGGAUCACCCACCUAGCUCAGCGUCGAAAGACGCUGAGCAA [#SharedSequence ExNG1 - 31] (puzzle (switch architecture): Exclusion NG 1) | 12.7 nM | 10.5 nM | – | – | –
AAAAAUUCUUAAGGAUAUCAGUGGCAAAGCCACUGAGAAGGUGAGGAUCACCCACCUACGUGACGCUGGAAACAGCGUCACGAA [#SharedSequence ExNG1 - 29] (puzzle (switch architecture): Exclusion NG 1) | 18.8 nM | 16.6 nM | – | – | –
UAUAUAUAGGCAGGAUAUACAUGUAUAUAUAAUUUUUUAUAUAUUAUUACAUGAGGAUCACCCAUGUAGAAGGGCCUUAUUAUA [LRO039_Exclusion NG 2] | – | – | 62.8 nM | 46.9 nM | –
CGAAGUCCGUAGAAGGGUGACAUGAGGAUCACCCAUGUGCGAGCCGAUGGAGUCAGCGGCUCGCCACAGGAUAUACGGAGCACG [Isdiesrama] (puzzle (switch architecture): Inverted Same State NG 2) | 22.3 nM | 180 nM | – | – | –
CCAUAAAAGAUCCAUUUUUACAACAUGAGGAUCACCCAUGUGCAGGAUAUCGUGAAAGUUAAAUACGAGAAGGGCAAGAACUGC [JR_ExcNG3_Sub050] | – | – | 104 nM | 105 nM | –
AGAAACUACGAGAAGGACAUGUGGUCCUUCAAAACCAUGAGGAUCACCCAUGUAGGAUAUCGUAGUUUCAGGAUCGUGAGAUCA [salish99_ISLExNG1_023 #HINGE] (puzzle (switch architecture): Inverted Small Loop Exclusion NG 1) | 12.1 nM | 268 nM | – | – | –
AUGGAUAUCACAGGAUAUGAUAUGGAUACCAUAUCAGAAGGGUGACCCAUCCUAUGUAAAUACAUGAGGAUCACCCAUGUGUCC [Sara'sguidence+#HughScoreProbStacks#11] (puzzle (switch architecture): Same State NG 1) | 340 nM | 640 nM | – | – | –
AUCAGCUCGUCAGGAUAUACGUCACUGCUUCGGCAGUGUGGUAAGAUCACAUGAGGAUCACCCAUGUAGAAGGGACGAGCUGAU [#EX_NG2_M81 #GC_VS_GU_SWITCHING] (puzzle (switch architecture): Exclusion NG 2) | 258 nM | 13.4 nM | – | – | –
AUGACAGGCAGAGCGCAACGGCGUACAUGAGGAUCACCCAUGUAGGAUAUACUACACAAAGUGUAGUAGAAGGACAUGCGACGG [Ex NG2 #89] | – | – | 69 nM | 35.8 nM | –
GGGUACAUCGGAGGAUAUCAUGUAUAUACAUGAGGAUCACCCAUGUCGAUGGAGACAUCGGAGAUUGAGAAGGCCGAUGUACCG (puzzle (switch architecture): Same State NG 2) | 11.8 nM | 382 nM | – | – | –
GGAGACCUUACAGGAUAUGCUGGACUUUGUCCAGCAGAAGGGUGAAAACAUGAGGAUCACCCAUGUAUGGUCUCCAAAUUUAAU [jl-ssng1-3.02 #GU_VS_GC_SWITCHING] (puzzle (switch architecture): Same State NG 1) | 21.2 nM | 19.1 nM | – | – | –
GCAGCUAAUGCAGGAUAUCAGCACGUGUAGUGCUGAGAAGGGCACAUGAGGAUCACCCAUGUGAUCAAUUAAUGUUAAUGCUGC [ExNG1 1 #C-Saturation] (puzzle (switch architecture): Exclusion NG 1) | 15.2 nM | 6.82 nM | – | – | –
AUGACAGGCAGAGCGCAACGGCGUACAUGAGGAUCACCCAUGUAGGAUAUACUACACAAAGUGUAGUAGAAGGACAUGCGACGC [Ex NG2 #87] | – | – | 34.4 nM | 23.2 nM | –
UGUUGUUACGCAGGAUAUUGCCAACAGGCAGUAGGAUAUCCGAAAGGAGAAGGAUCGCCAACAGGCGAGAAGGGCGGGUUAACA [pwkr exNG2 2xF7 2FMN.10.2] | – | – | 194 nM | 706 nM | –
CCUUUAAAGAUCCAAAAUUACAACAUGAGGAUCACCCAUGUGCAGGAUAUCGUGCCAGUGAUGUACGAGAAGGGCAGACUCUGC [salish99_ExNG3_r2_015] | – | – | 95.2 nM | 105 nM | –
AUAUAUAUUUAGAAGGACAUGAGGAUCACCCAUGUCGCCGGGCCCGGGAAACCGGGCCCGGCCAUGUAGGAUAUAGAUAUAUAU [#This is a good prank 13] (puzzle (switch architecture): Inverted Exclusion NG 2) | 9.05 nM | 6.41 nM | – | – | –
UAUUAUAUAUAGAAGGACAUGAGGAUCACCCAUGUCGCCGGGCCCGGGAAACCGGGCCCGGCCAUGUAGGAUAUAUAUAUGGUA [#This is a good prank 8] (puzzle (switch architecture): Inverted Exclusion NG 2) | 6.2 nM | 6.38 nM | – | – | –
AGGACAGGCAGAGCGCAACGGCGUACAUGAGGAUCACCCAUGUAGGAUAUACUACACAAAGUGUAGUAGAAGGACAUGCGACGC [Ex NG2 #88] | – | – | 45.6 nM | 16.1 nM | –
CGAUAUAUGAAGGGCAAACGCCCACAUGAGGAUCACCCAUGUAGAAGGCGAUCCGCAACGCGGAUCGAGGAUAUAUAGUAUACA [#my 15th design] (puzzle (switch architecture): Inverted Exclusion NG 3) | 10.6 nM | 11.2 nM | – | – | –
CCUGACACUUGAGGAUAUGCUCAGGAUAACUGAGCAGAAGGCAGGAAAACCUGAGGAUCACCCAGGUAAGUCAGGAAUAAUAAA [Same State NG1 - A3C, U17G Submission 3B] | – | – | – | – | apparent KD of MS2 coat protein (MS2 coat protein [3]; input ligand: FMN 200 uM): 15.8 nM; apparent KD of MS2 coat protein (MS2 coat protein [3]; input ligand: none): 21.7 nM
